Columns and labels:
[1] = biological target: T1, CD137 on Jurkat NFkB reporter cells (human, UniProt Q07011 24-255); experiment: cell-based or functional assay
biotinylated human PDL1 = biological target: T2, biotinylated human PDL1 (human, UniProt Q9NZQ7 19-238, limits assumed, biotinylated); experiment: competition ELISA PD-1/PDL1
T2 construct: also called biotinylated PDL1

Fc tagged human PDL1 = biological target: T3, Fc tagged human PDL1 (human, UniProt Q9NZQ7 19-239); experiment: SPR
T3 construct: Bought (Sino Biological, cat. 10084-H02H); captured on the SPR chip; also called PDL1-Fc chimeric protein
Method in brief: (§1)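 Kinetics were fitted with a one-to-one Langmuir model to give apparent ka, kd and KD. Binders at 0.12-90 nM (three-fold series) flowed 3 min, with 10 min dissociation and 3 M MgCl₂ regeneration, on a Biacore T200.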

Fc tagged human CD137 = biological target: T4, Fc tagged human CD137 (human, UniProt Q07011 24-186); experiment: SPR
T4 construct: also called CD137-Fc chimeric protein
Method in brief: as §1

[2] = biological target: T5, mouse CD137-Fc chimeric protein (mouse, UniProt P20334 24-187, limits assumed); experiment: SPR
T5 sequence (looked up): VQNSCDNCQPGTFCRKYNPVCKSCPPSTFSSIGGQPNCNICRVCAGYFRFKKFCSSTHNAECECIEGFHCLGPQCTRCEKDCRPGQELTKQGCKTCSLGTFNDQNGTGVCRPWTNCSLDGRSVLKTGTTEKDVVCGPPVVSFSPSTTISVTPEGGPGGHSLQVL
Method in brief: as §1

[3] = biological target: T1, CD137 on Jurkat NFkB reporter cells; experiment: cell-based or functional assay; remark: listed apart in the source
[4] = biological target: T1, CD137 on Jurkat NFkB reporter cells; experiment: cell-based or functional assay; remark: listed apart in the source
human PDL1 on cells = human PDL1 on cells (human, UniProt Q9NZQ7 19-290); experiment: cell-based or functional assay
[5] = biological target: T1, CD137 on Jurkat NFkB reporter cells; experiment: cell-based or functional assay; remark: listed apart in the source

- EC50, NFkB reporter, HCC827 without IFNg [1]: 6.97 ng/mL
- Top of curve fit, NFkB reporter, HCC827 without IFNg [1]: 135
- IC50 (biotinylated human PDL1): 1.28 ng/mL
- rel. IC50 (IC50 avelumab/IC50 test) (biotinylated human PDL1): 1.59 fold
- Kd (Fc tagged human PDL1): ≤ 0.0035 nM
- fold improvement in affinity against PRO885 (CDR graft) (Fc tagged human PDL1): 20 fold
- koff (Fc tagged human PDL1): < 1e-05 s⁻¹
- Kd (Fc tagged human CD137): 3.5 nM
- koff (Fc tagged human CD137): 0.00075 s⁻¹
- kon (Fc tagged human CD137): 210000 M⁻¹ s⁻¹
- binding result [2]: no binding
- EC50, NFkB reporter, HCC827 with IFNg [3]: 5.48 ng/mL
- Top of curve fit, NFkB reporter, HCC827 with IFNg [3]: 208
- IC50 (ng/ml), NFkB reporter, CHO-PD-L1 [4]: 6 ng/mL
- IC50 (ng/ml), NFkB reporter, HCC827 + IFNg [4]: 5.48 ng/mL
- IC50 (ng/ml), NFkB reporter, HCC827 - IFNg [4]: 6.97 ng/mL
- max. activation (%), NFkB reporter, CHO-PD-L1 [4]: 242%
- max. activation (%), NFkB reporter, HCC827 + IFNg [4]: 208%
- max. activation (%), NFkB reporter, HCC827 - IFNg [4]: 135%
- rel. IC50 (urelumab/test), NFkB reporter, CHO-PD-L1 [4]: 14.4 fold
- rel. IC50 (urelumab/test), NFkB reporter, HCC827 + IFNg [4]: 19.7 fold
- rel. IC50 (urelumab/test), NFkB reporter, HCC827 - IFNg [4]: 16 fold
- IC50, NFAT reporter gene assay (human PDL1 on cells): 48.1 ng/mL
- EC50, NFkB reporter, CHO-PDL1 [5]: 6 ng/mL
- Top of curve fit, NFkB reporter, CHO-PDL1 [5]: 242
B1: PRO1126 (bispecific antibody)
chain: DFQLTQSPSSLSASVGDRVTITCQASQSINDYLAWYQQKPGKSPKLLIYKASTLASGVPSRFSGSGSGTDFTLTISSLQPEDFATYYCQQGYIITDIDNVFGTGTKVTVLGGGGGSQVQLQESGPGLVKPSETLSLTCKVSGFSFSNSYWICWIRQPPGKGLEWIGCTFVGSSDSTYYANWAKGRVTISVDSSKNQFSLKLSSVTAADTAVYYCARHPSDAVYGYANNLWGQGTLVTVSSGGGGSGGGGSGGGGSGGGGSIQMTQSPSSLSASVGDRVTITCQASQSINNVLAWYQQKPGKAPKLLIYRASTLASGVPSRFSGSGSGTDFTLTISSLQPEDFATYYCQSSYGNYGDFGTGTKVTVLGGGGGSQSQLQESGPGLVKPSETLSLTCKASGFSFSSGYDMCWVRQPPGKGLEWIACVVAGSVDITYYASWAKGRVTISKDSSKNQVSLKLSSVTAADTAVYFCARKDAYSDAFNLWGQGTLVTVSS
notes: scDb; also called 38-02-A04 sc01 scDb-i/33-03-G02 sc03 Full scDb-o

From patent US20230192897A1 (NUMAB THERAPEUTICS, published 2023)
